Assay [1] has as its target GFP-GiKIN14a (recombinant full-length GiKIN14a with an N-terminal GFP) (Giardia intestinalis). As to the kind of experiment: hydrodynamic analysis.
The target of assay [2] is GFP-GiKIN14a-Δtail (Giardia intestinalis). Description: hydrodynamic analysis.
The target is the same in assay [3]. Description: single-molecule photobleaching.

Broadly, the stoichiometry N is a count of units in the complex or per binding partner.

In the case of “GFP-GiKIN14a (recombinant full-length GiKIN14a with an N-terminal GFP) (natural protein)”, the stoichiometry N in assay [1] worked out at 2. For the substance GFP-GiKIN14a-Δtail (domain or fragment), the stoichiometry N in assay [2] and in assay [3] was 2 throughout.

The values are drawn from paper PMC7511442.
